Reference: publication PMC11923092

What was measured:
[1] = SEC; constructs with partial Aes^N fragments fused to MBP, 30 µM each; aggregate and monomer content
[2] = SEC; construct with a partial Aes^N fragment fused to MBP at 150 µM; aggregate content
[3] = SEC; analytical SEC without prior concentration adjustment; cysteine-containing proteins reduced with 0.5 mM TCEP before SEC
[4] = SEC; Superdex 200 10/300, 4 °C, 0.75 mL/min, assay buffer; protein as isolated; soluble aggregate at the void volume against the monomer
[5] = SEC; 1P at an isolated protein concentration of 45 µM; monomer against aggregate
[6] = SEC; analytical SEC at 15 °C after dilution to 10 µM and 24 h at 15 °C in 50 mM Tris, 300 mM NaCl, pH 7; aggregate/monomer ratio from peak areas

## 13P, MBP fusion of Aes^N aa62-120
[1]
  aggregated fraction (SEC): showed a significant aggregated fraction (53%)

## 14P, MBP fusion of Aes^N aa69-120
[1]
  aggregated fraction (SEC): 9% at 30 µM and 15% at 150 µM
[2]
  aggregated fraction (SEC): 9% at 30 µM and 15% at 150 µM

## GFP-Npu^N-H6 (27P)
[3]
  monomeric fraction (SEC): this precursor existed to only 43% as a monomer

## MBP-Aes^N-H6 (1P)
[4]
  aggregated fraction (SEC): about 71% of the protein
  monomeric fraction (SEC): about 29%
[5]
  monomeric fraction (SEC): at 45 µM and 135 µM only about 4% and no detectable monomeric species were present
[6]
  monomeric fraction (SEC): 19% measured for the WT (1P)

## MBP-Ssp^N-H6 (25P)
[3]
  aggregated fraction (SEC): high-molecular weight aggregate fraction (ca. 66%)
  monomeric fraction (SEC): a monomeric fraction (ca. 34%)
